In patent US20180037645A1:
Where two headings read alike, the source gives them in different places.

Key:
[1] = target: IL-23 M54A (human) (UniProt P29460); assay: cell-based or functional assay
[2] = target: IL-23 H53A (human) (UniProt P29460); assay: cell-based or functional assay
[3] = target: IL-23 E112A (human) (UniProt P29460); assay: cell-based or functional assay
[4] = target: wild-type IL-23 (His-tagged p19 / non-tagged p40) (human) (UniProt P29460); assay: cell-based or functional assay
[5] = target: IL-23 D118A (human) (UniProt P29460); assay: cell-based or functional assay
[6] = target: IL-23 D55A (human) (UniProt P29460); assay: cell-based or functional assay
[7] = target: IL-23 L116A (human) (UniProt P29460); assay: cell-based or functional assay
[8] = target: IL-23 alanine shave mutant M9 (human) (UniProt P29460); assay: cell-based or functional assay
[9] = target: IL-23 alanine shave mutant M7 (human) (UniProt P29460); assay: cell-based or functional assay
[10] = target: IL-23 alanine shave mutant M10 (human) (UniProt P29460); assay: cell-based or functional assay
[11] = target: wild-type IL-23 (His-tagged p19 / non-tagged p40) (human) (UniProt P29460); assay: cell-based or functional assay; remark: listed apart in the source
[12] = target: IL-23 alanine shave mutant M5 (human) (UniProt P29460); assay: cell-based or functional assay
[13] = target: IL-23 M54A (human) (UniProt P29460); assay: SPR (Biacore T100), antibody captured by protein A
[14] = target: IL-23 H53A (human) (UniProt P29460); assay: SPR (Biacore T100), antibody captured by protein A
[15] = target: IL-23 alanine shave mutant M9 (human) (UniProt P29460); assay: SPR (Biacore T100), antibody captured by protein A
[16] = target: IL-23 alanine shave mutant M7 (human) (UniProt P29460); assay: SPR (Biacore T100), antibody captured by protein A
[17] = target: IL-23 alanine shave mutant M10 (human) (UniProt P29460); assay: SPR (Biacore T100), antibody captured by protein A
[18] = target: IL-23 E112A (human) (UniProt P29460); assay: SPR (Biacore T100), antibody captured by protein A
[19] = target: IL-23 D118A (human) (UniProt P29460); assay: SPR (Biacore T100), antibody captured by protein A
[20] = target: IL-23 alanine shave mutant M5 (human) (UniProt P29460); assay: SPR (Biacore T100), antibody captured by protein A
[21] = target: IL-23 D55A (human) (UniProt P29460); assay: SPR (Biacore T100), antibody captured by protein A
[22] = target: IL-23 L116A (human) (UniProt P29460); assay: SPR (Biacore T100), antibody captured by protein A

Chain of IL-23 alanine shave mutant M7 (human) (chain, as listed by the source mutant limits assumed, form in doubt, chain 1 of 2): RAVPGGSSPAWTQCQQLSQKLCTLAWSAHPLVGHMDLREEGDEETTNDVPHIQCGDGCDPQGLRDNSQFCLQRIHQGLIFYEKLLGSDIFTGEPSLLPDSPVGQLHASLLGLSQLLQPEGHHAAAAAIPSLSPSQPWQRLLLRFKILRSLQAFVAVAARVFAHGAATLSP
Chain of IL-23 alanine shave mutant M7 (human) (P29460 23-328 limits assumed, change not shown, form in doubt, chain 2 of 2): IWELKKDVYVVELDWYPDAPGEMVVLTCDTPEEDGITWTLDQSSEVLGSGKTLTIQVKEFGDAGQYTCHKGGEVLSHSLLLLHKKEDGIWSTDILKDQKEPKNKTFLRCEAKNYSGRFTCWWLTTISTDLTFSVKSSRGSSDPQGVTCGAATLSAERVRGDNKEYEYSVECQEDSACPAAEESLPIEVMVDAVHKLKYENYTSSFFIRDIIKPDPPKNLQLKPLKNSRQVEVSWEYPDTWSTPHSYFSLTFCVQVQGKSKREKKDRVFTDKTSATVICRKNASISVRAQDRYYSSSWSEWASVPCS
Chain of IL-23 alanine shave mutant M9 (human) (chain, as listed by the source mutant limits assumed, form in doubt, chain 1 of 2): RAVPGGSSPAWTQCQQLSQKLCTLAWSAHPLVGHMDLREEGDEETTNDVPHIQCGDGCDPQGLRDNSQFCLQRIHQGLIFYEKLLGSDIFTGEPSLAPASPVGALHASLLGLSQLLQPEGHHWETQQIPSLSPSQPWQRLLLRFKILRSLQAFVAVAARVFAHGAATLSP
Chain of IL-23 alanine shave mutant M9 (human) (P29460 23-328 limits assumed, change not shown, form in doubt, chain 2 of 2): as the sequence (P29460 23-328 limits assumed, change not shown, form in doubt, chain 2 of 2) above
Chain of wild-type IL-23 (His-tagged p19 / non-tagged p40) (human) (chain, as listed by the source limits assumed, chain 1 of 2): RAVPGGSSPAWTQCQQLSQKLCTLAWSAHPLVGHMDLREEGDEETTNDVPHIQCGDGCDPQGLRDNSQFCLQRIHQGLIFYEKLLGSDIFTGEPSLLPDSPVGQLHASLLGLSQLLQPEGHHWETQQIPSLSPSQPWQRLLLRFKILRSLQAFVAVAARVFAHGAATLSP
Chain of wild-type IL-23 (His-tagged p19 / non-tagged p40) (human) (P29460 23-328 limits assumed, chain 2 of 2): as the sequence (P29460 23-328 limits assumed, change not shown, form in doubt, chain 2 of 2) above
Chain of IL-23 alanine shave mutant M10 (human) (chain, as listed by the source mutant limits assumed, form in doubt, chain 1 of 2): as the sequence (chain, as listed by the source limits assumed, chain 1 of 2) above, with H34A, M35A, D36A, F144A counted along it
Chain of IL-23 alanine shave mutant M10 (human) (P29460 23-328 limits assumed, stated change not applied, form in doubt, chain 2 of 2): as the sequence (P29460 23-328 limits assumed, change not shown, form in doubt, chain 2 of 2) above
Chain of IL-23 L116A (human) (chain, as listed by the source L116A L116A, chain 1 of 2): as the sequence (chain, as listed by the source limits assumed, chain 1 of 2) above, with L97A counted along it
Chain of IL-23 L116A (human) (P29460 23-328, chain 2 of 2): as the sequence (P29460 23-328 limits assumed, change not shown, form in doubt, chain 2 of 2) above
Chain of IL-23 H53A (human) (chain, as listed by the source H53A H53A, chain 1 of 2): as the sequence (chain, as listed by the source limits assumed, chain 1 of 2) above, with H34A counted along it
Chain of IL-23 H53A (human) (P29460 23-328, chain 2 of 2): as the sequence (P29460 23-328 limits assumed, change not shown, form in doubt, chain 2 of 2) above
Chain of IL-23 D55A (human) (chain, as listed by the source D55A D55A, chain 1 of 2): as the sequence (chain, as listed by the source limits assumed, chain 1 of 2) above, with D36A counted along it
Chain of IL-23 D55A (human) (P29460 23-328, chain 2 of 2): as the sequence (P29460 23-328 limits assumed, change not shown, form in doubt, chain 2 of 2) above
Chain of IL-23 E112A (human) (chain, as listed by the source E112A E112A, chain 1 of 2): as the sequence (chain, as listed by the source limits assumed, chain 1 of 2) above, with E93A counted along it
Chain of IL-23 E112A (human) (P29460 23-328, chain 2 of 2): as the sequence (P29460 23-328 limits assumed, change not shown, form in doubt, chain 2 of 2) above
Chain of IL-23 M54A (human) (chain, as listed by the source M54A M54A, chain 1 of 2): as the sequence (chain, as listed by the source limits assumed, chain 1 of 2) above, with M35A counted along it
Chain of IL-23 M54A (human) (P29460 23-328, chain 2 of 2): as the sequence (P29460 23-328 limits assumed, change not shown, form in doubt, chain 2 of 2) above
Chain of IL-23 D118A (human) (chain, as listed by the source D118A D118A, chain 1 of 2): as the sequence (chain, as listed by the source limits assumed, chain 1 of 2) above, with D99A counted along it
Chain of IL-23 D118A (human) (P29460 23-328, chain 2 of 2): as the sequence (P29460 23-328 limits assumed, change not shown, form in doubt, chain 2 of 2) above
Chain of IL-23 alanine shave mutant M5 (human) (chain, as listed by the source mutant limits assumed, form in doubt, chain 1 of 2): as the sequence (chain, as listed by the source limits assumed, chain 1 of 2) above, with H34A, M35A, E93A, L97A, D99A counted along it
Chain of IL-23 alanine shave mutant M5 (human) (P29460 23-328 limits assumed, stated change not applied, form in doubt, chain 2 of 2): as the sequence (P29460 23-328 limits assumed, change not shown, form in doubt, chain 2 of 2) above

| IC50, pSTAT3 in BaF3/huIL-23Rα/huIL-12Rβ1 transfectants [1] | IC50, pSTAT3 in BaF3/huIL-23Rα/huIL-12Rβ1 transfectants [2] | IC50, pSTAT3 in BaF3/huIL-23Rα/huIL-12Rβ1 transfectants [3] | IC50, pSTAT3 in BaF3/huIL-23Rα/huIL-12Rβ1 transfectants [4] | IC50, pSTAT3 in BaF3/huIL-23Rα/huIL-12Rβ1 transfectants [5] | IC50, pSTAT3 in BaF3/huIL-23Rα/huIL-12Rβ1 transfectants [6] | IC50, pSTAT3 in BaF3/huIL-23Rα/huIL-12Rβ1 transfectants [7] | IC50, pSTAT3 in BaF3/huIL-23Rα/huIL-12Rβ1 transfectants [8] [pM] | IC50, pSTAT3 in BaF3/huIL-23Rα/huIL-12Rβ1 transfectants [9] [pM] | IC50, pSTAT3 in BaF3/huIL-23Rα/huIL-12Rβ1 transfectants [10] [pM] | IC50, pSTAT3 in BaF3/huIL-23Rα/huIL-12Rβ1 transfectants [11] [pM] | Substance | other results |
| --- | --- | --- | --- | --- | --- | --- | --- | --- | --- | --- | --- | --- |
| 81 pM | 78 pM | 33 pM | 67 pM | 52 pM | 77 pM | 54 pM | 67 | 59 | 71 | 79 | STELARA® (ustekinumab, IL-12/IL-23 p40 mAb) (antibody) | IC50, pSTAT3 in BaF3/huIL-23Rα/huIL-12Rβ1 transfectants [12]: 62 pM; ΔΔG [13]: 0.3 kcal/mol; ΔΔG [14]: 0.3 kcal/mol; ΔΔG [15]: 0.1 kcal/mol; ΔΔG [16]: 0.1 kcal/mol; ΔΔG [17]: 0.3 kcal/mol; ΔΔG [18]: 0.3 kcal/mol; ΔΔG [19]: -0.3 kcal/mol; ΔΔG [20]: 0.1 kcal/mol; ΔΔG [21]: 0.5 kcal/mol; ΔΔG [22]: 0.5 kcal/mol |
| 0.27 nM | 0.19 nM | > 3 nM | 0.18 nM | 0.22 nM | 0.18 nM | 0.24 nM | 260 | 310 | 350 | 380 | Merck's IL-23 p19 mAb (7G10) (antibody) | – |
